Results: US20140296307, “POTENT ANALOGUES OF THE C-MYC INHIBITOR 10074-G5 WITH IMPROVED CELL PERMEABILITY” (University of Maryland, Baltimore, published 2014)

How the values were obtained:
Max(L) homodimer = Max(L) homodimer (UniProt P61244 P61244:2-160); experiment: EMSA; 60 nM Max(L), 20 nM DNA; same buffer; 3jc48-3 compound IC50 60.6 uM; conditions: tags: His6; chain copies: 2 (stated homodimer); label: 5'-hexachlorofluorescein
Experimental: (§1) EMSAs. These were performed essentially as described previously (23). Briefly, Ni⁺-agarose-purified His₆-tagged c-Myc bHLH-ZIP domain (residues 353-437) was used for all binding assays as was the His₆-tagged 151 residue isoform of Max, otherwise referred to as Max(S) (residues 2-151) (21). For each binding reaction, the proteins were allowed to heterodimerize at a concentration of 30 nM each in the presence of 20 nM of a 5′-HEX-tagged double-stranded 22-base pair oligonucleotide 5′-hexachlorofluoresceine-[…]-3′ (SEQ ID NO: 1) containing a consensus c-Myc binding site (CACGTG) and the indicated concentration of small molecule inhibitor. Control reactions contained the same oligonucleotide in the presence of 60 nM of the 160 residue isoform of Max referred to as Max(L) (21). All binding reactions were prepared in a buffer consisting of PBS (pH 7.3), 1 mmol/L EDTA, 0.1% NP40, 5% glycerol, 1 mmol/L DTT, and 0.4 mg/mL bovine serum albumin. Electrophoresis was performed on 8% polyacrylamide/bisacrylamide (80:1) gels in […] (23). Each reaction was run on at least three separate occasions.

[1] = target: c-Myc bHLH-ZIP/Max(S) heterodimer (UniProt P01106-1;P61244-2 P01106-1:353-437,P61244-2:2-151); experiment: EMSA; 30 nM each protein, 20 nM DNA; PBS pH 7.3, 1 mM EDTA, 0.1% NP40, 5% glycerol, 1 mM DTT, 0.4 mg/mL BSA; binding disrupted by 3jc48-3 (compound IC50 34.8 uM); conditions: tags: His6 (Myc His6-TEV tag from pET151, removed by TEV in one protocol), label: 5'-hexachlorofluorescein
Experimental: as §1

c-Myc bHLH-ZIP/Max(S) heterodimer, sequence (P01106 368-452, chain 1 of 2): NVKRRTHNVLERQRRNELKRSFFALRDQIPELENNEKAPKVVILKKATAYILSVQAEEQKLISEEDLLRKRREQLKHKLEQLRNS
c-Myc bHLH-ZIP/Max(S) heterodimer, sequence (P61244 other isoform, or with tags, fused parts or gaps, chain 2 of 2): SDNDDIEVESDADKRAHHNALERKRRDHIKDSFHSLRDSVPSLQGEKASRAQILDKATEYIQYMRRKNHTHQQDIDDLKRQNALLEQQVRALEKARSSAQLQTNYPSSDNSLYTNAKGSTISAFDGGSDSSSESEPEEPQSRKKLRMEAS
Max(L) homodimer, sequence (P61244 2-160, one chain of several): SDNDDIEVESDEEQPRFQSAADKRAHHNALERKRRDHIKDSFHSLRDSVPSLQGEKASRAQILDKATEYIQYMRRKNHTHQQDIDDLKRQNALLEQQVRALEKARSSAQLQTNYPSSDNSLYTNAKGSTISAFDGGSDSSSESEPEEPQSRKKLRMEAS

B1: E-box 22-bp HEX oligonucleotide (dsDNA)
DNA 1: CACCCGGTCACGTGGCCTACAC
DNA 2: GTGTAGGCCACGTGACCGGGTG
B1: binds (Max(L) homodimer); binds [1].
